From patent US20220033501A1 (SHANGHAI PHARMAEXPLORER, published 2022)

T1: human TIM-3 on CHOK1 stable cell line (CHOK1-hTIM-3) (human, UniProt Q8TDQ0 22-301)
T1 sequence: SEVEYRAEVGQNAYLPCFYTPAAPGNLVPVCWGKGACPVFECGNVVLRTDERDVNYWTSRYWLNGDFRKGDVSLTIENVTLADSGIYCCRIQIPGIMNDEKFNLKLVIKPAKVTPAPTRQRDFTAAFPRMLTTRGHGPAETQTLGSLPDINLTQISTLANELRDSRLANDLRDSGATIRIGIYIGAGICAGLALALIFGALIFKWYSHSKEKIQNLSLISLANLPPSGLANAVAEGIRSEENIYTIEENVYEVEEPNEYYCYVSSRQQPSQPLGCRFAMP

T2: monkey TIM-3 extracellular domain protein with hFc tag (cTIM-3-hFc) (monkey)
T2 construct: not shown: human IgG Fc fragment (hFc) of the pCpC vector
T2 chain: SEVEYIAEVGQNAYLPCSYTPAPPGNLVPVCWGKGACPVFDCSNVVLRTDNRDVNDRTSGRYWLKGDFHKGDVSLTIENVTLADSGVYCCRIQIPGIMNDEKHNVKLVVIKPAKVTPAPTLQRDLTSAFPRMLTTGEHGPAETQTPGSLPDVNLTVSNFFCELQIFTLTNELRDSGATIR

T3: human TIM-3 extracellular domain protein with hFc tag (hTIM-3-hFc) (human, UniProt Q8TDQ0 22-200)
T3 construct: not shown: human IgG Fc fragment (hFc) of the pCpC vector
T3 sequence: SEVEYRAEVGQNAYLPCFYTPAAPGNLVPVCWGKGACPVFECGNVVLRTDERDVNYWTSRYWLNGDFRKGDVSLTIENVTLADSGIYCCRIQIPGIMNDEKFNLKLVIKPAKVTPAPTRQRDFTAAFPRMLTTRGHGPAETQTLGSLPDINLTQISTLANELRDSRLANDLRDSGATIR

T4: monkey TIM-3 on CHOK1 stable cell line (CHOK1-cTIM-3) (monkey)
T4 chain: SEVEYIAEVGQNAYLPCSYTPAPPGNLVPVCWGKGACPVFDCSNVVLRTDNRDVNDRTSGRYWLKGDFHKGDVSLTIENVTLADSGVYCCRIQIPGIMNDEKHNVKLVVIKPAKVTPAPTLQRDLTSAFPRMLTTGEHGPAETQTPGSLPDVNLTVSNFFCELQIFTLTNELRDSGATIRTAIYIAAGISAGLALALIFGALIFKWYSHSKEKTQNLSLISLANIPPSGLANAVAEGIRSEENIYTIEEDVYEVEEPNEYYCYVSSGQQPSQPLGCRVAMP

T5: monkey TIM-3 protein with hFc tag (cTIM-3-hFc protein) (monkey; human)
T5 construct: Made in HEK293 cells; also called monkey TIM-3 extracellular domain protein; not shown: human IgG Fc fragment (hFc) of the pCpC vector
T5 chain: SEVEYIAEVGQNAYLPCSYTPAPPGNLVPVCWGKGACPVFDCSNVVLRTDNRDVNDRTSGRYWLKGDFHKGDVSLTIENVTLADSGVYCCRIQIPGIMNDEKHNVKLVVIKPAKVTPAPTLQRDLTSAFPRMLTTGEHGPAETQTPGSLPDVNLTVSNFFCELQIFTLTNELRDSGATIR

T6: murine TIM-3 protein with hFc tag (mTIM-3-hFc protein) (mouse; human, UniProt Q8VIM0 29-191)
T6 construct: Made in HEK293 cells; also called mouse TIM-3 extracellular domain protein; not shown: human IgG Fc fragment (hFc) of the pCpC vector
T6 chain: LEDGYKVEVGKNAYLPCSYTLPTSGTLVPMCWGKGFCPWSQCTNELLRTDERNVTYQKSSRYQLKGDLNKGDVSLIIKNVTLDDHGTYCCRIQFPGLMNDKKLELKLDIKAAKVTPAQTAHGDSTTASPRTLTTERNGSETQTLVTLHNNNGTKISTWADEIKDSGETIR


Columns and labels:
[1] = molecular target: T1, human TIM-3 on CHOK1 stable cell line …; assay: FACS, CHOK1-hTIM-3 cells, 1.6 nM antibody
[2] = molecular target: T1, human TIM-3 on CHOK1 stable cell line …; assay: FACS, CHOK1-hTIM-3 cells, 0.013 nM antibody
[3] = molecular target: T2, monkey TIM-3 extracellular domain …; assay: ELISA, coated monkey TIM-3 ECD protein, 0.6667 nM antibody
[4] = molecular target: T3, human TIM-3 extracellular domain …; assay: ELISA, coated human TIM-3 ECD protein, 0.0007 nM antibody
[5] = molecular target: T4, monkey TIM-3 on CHOK1 stable cell line …; assay: FACS, CHOK1-cTIM-3 cells, 0.32 nM antibody
[6] = molecular target: T5, monkey TIM-3 protein with hFc tag …; assay: ELISA, coated cTIM-3-hFc; antibody 0.0667 nM
From the text: (§1) The amino acid sequence 22-200 of the extracellular domain of the human TIM-3 protein described in the step of Example 1 (as shown in SEQ ID NO. 71 in the sequence listing) was cloned into a pCpC vector having a human IgG Fc fragment (hFc), and transfected into HEK293 cells. The cell culture medium was collected, and purified to obtain the human TIM-3 protein with hFc tag (herein referred to as hTIM-3-hFc protein). The amino acid sequence 22-201 of the extracellular domain of the monkey TIM-3 protein (as shown in SEQ ID NO. 72 in the sequence listing) was cloned into a pCpC vector having a human IgG Fc fragment (hFc), and transfected into HEK293 cells. The cell culture medium was collected, and purified to obtain the monkey TIM-3 protein with hFc tag (herein referred to as cTIM-3-hFc protein). […] The cell culture medium was collected, and purified to obtain the murine TIM-3 protein with hFc tag (herein referred to as mTIM-3-hFc protein). Purified human, monkey, and mouse TIM-3 extracellular domain proteins (hTIM-3-hFc, cTIM-3-hFc, and mTIM-3-hFc) were diluted with PBS to a final concentration of 1.0 μg/ml and then added to a 96-well ELISA plate with 100 μl per well. The plate was sealed with plastic film and incubated overnight at 4° C. The plate was washed 4 times with the plate washing solution (PBS+0.01% Tween20) on the next day, and added with the blocking solution (PBS+0.01% Tween20+1% BSA) and sealed at room temperature for 1-2 hours. The blocking solution was poured out. 50-100 μl of the antibody sample to be tested was added to each well. The plate was incubated at 37° C. for 1-2 hours, and washed 2-3 times with plate washing solution (PBS+0. 01% Tween20). HRP (horseradish peroxidase) labeled secondary antibody was added. The plate was incubated at 37° C. for 1-2 hours, and washed 2-3 times with plate washing solution (PBS+0. 01% Tween20). […] of TMB substrate was added to each well. After incubated at room temperature for 15-30 minutes, the plate was added with […] stop solution (1.0N HCl) to each well. An ELISA plate reader (TiterMax 384plus, Molecular Device) was used to read the A450 nm value.

[7] = molecular target: T6, murine TIM-3 protein with hFc tag …; assay: ELISA, coated mTIM-3-hFc
[8] = molecular target: T6, murine TIM-3 protein with hFc tag …; assay: ELISA, coated mTIM-3-hFc; antibody 0.0001 nM
From the text: as §1

[9] = molecular target: T6, murine TIM-3 protein with hFc tag …; assay: ELISA, coated mTIM-3-hFc; antibody 0 nM (blank)
From the text: as §1

| Binder | Mean fluorescence intensity [1] | Mean fluorescence intensity [2] | OD450 [3] | OD450 [4] | Mean fluorescence intensity [5] | OD450 [6] | binding result [7] | OD450 [8] | OD450 [9] |
| --- | --- | --- | --- | --- | --- | --- | --- | --- | --- |
| 39E5H1 (TIM-3 antibody purified from hybridoma, chimeric antibody of Example 2) (antibody, V domains shown, From hybridoma of Harbour H2L2 transgenic mice: human variable regions, rat constant regions) VH: EVQLVESGGGLVQPGGSLRLSCAASGFTFSSYWMSWVRQAPGKGLEWVANIKRGGSERYYVDSVKGRFTISGDNAKNSVYLQMNSLRAEDTAVYYCARGSNWFDPWGQGTLVTVSS VL: ETVMTQSPAILSVSPGERATLSCRASQSVYSNLAWYQQKLGQAPRLLIYDASTRATGIPARFSGSGSGTEFTLTISSLQSEDFAVYYCQQYNNWPITFGQGTRLEIK |  |  |  |  |  | 1.98 | no binding (tested: 66.667 nM) | 0.64 | 0.62 |
| 57F4E5 (TIM-3 antibody purified from hybridoma, chimeric antibody of Example 2) (antibody, V domains shown, From hybridoma of Harbour H2L2 transgenic mice: human variable regions, rat constant regions) VH: EVQLVESGGGLVQPGGSLRLSCAASGFTFSSYWMSWVRQAPGKGLEWVANIKQDGSEKYYVDSVKGRFTISRDSAKNSLYLQMNSLRAEDTAMYFCARDSNFFDYWGQGTLVTVSS VL: ETVMTQSPATLSVSPGERATLSCRASQSVSSNLAWYQRKPGQAPRLLIYFSSTRATGIPARFSGSGSGTEFTLTISSLQSEDFAVYYCQQYNNWPLTFGGGTKVEIK |  |  |  |  |  | 2.68 | no binding (tested: 66.667 nM) | 0.63 | 0.64 |
| 18D2H2 (TIM-3 antibody purified from hybridoma, chimeric antibody of Example 2) (antibody, V domains shown, From hybridoma of Harbour H2L2 transgenic mice: human variable regions, rat constant regions) VH: EVQLVESGGDLVQPGGSLRLSCAASGFTFSTYWMTWVRQAPGRGLEWVANIKQDGSAKYYVDSVKGRFTLSRDDAKNSLYLQMNSLRAEDTAVYYCARGSNWFDYWGQGTLVTVSS VL: ETVMTQSPATLSVSPGERATLSCRANQNVYSNLAWYQQKPGQAPRLLIYDASTRATGFPARFSGSGSGTEFTLTISSLQSEDFAVYYCQQYNNWPLTFGGGTKVEIK |  |  |  |  |  | 0.74 | no binding (tested: 66.667 nM) | 0.64 | 0.62 |
| 34B6D8 (TIM-3 antibody purified from hybridoma, chimeric antibody of Example 2) (antibody, V domains shown, From hybridoma of Harbour H2L2 transgenic mice: human variable regions, rat constant regions) VH: EVQLVESGGGLVQPGGSLRLSCAASGFTFSTYWMTWVRQAPGKRLEWVANIKQGGGDKYYVDSVKGRFTISTDNAKNSLYLQMNSLRAEDTAVYYCARGSNWFDPWGQGTLVTVSS VL: EIVMTQSPATLSMSPGERATLSCRASQSVYDNLAWYQQKPGQAPRLLIYGASTRATGIPARFSGSGSGTEFTLTISSLQSEDFALYYCQQYTHWPITFGQGTRLEIK |  |  |  |  |  | 1.92 | no binding (tested: 66.667 nM) | 0.62 | 0.66 |
| 7A4F10 (TIM-3 antibody purified from hybridoma, chimeric antibody of Example 2) (antibody, V domains shown, From hybridoma of Harbour H2L2 transgenic mice: human variable regions, rat constant regions) VH: EVQLLESGGGLVQPGGSLRLSCAASGFTFRTHLISWVRQAPGKGLEWVAAITGSGGSTYYADSVKGRFIISRDNSKNTLFLQMNSLRAEDTAVYYCAKDGGSGSYDDFWGQGTLVTVSS VL: ETVLTQSPVTLSLSPGERATLSCRASQSVGSYLAWYQQKPGQAPRLLIYDASNRATGIPARFSGSGSGTDFTLTISSLEPEDFAVYYCQQRSNWPPTFGQGTKVEIK |  |  |  |  |  | 0.7 | no binding (tested: 66.667 nM) | 0.65 | 0.63 |

More lines, now with the values ahead:

| Mean fluorescence intensity [1] | Mean fluorescence intensity [2] | OD450 [3] | OD450 [4] | Mean fluorescence intensity [5] | OD450 [6] | binding result [7] | OD450 [8] | OD450 [9] | Binder |
| --- | --- | --- | --- | --- | --- | --- | --- | --- | --- |
| 156 | 9.6 | 3.15 | 0.11 | 80.6 |  |  |  |  | 57F4E5 fully human TIM-3 antibody (human IgG4, kappa) (antibody, V domains shown) VH: EVQLVESGGGLVQPGGSLRLSCAASGFTFSSYWMSWVRQAPGKGLEWVANIKQDGSEKYYVDSVKGRFTISRDSAKNSLYLQMNSLRAEDTAMYFCARDSNFFDYWGQGTLVTVSS VL: ETVMTQSPATLSVSPGERATLSCRASQSVSSNLAWYQRKPGQAPRLLIYFSSTRATGIPARFSGSGSGTEFTLTISSLQSEDFAVYYCQQYNNWPLTFGGGTKVEIK |
| 207 | 13.5 | 3.1 | 0.1 | 134 |  |  |  |  | 134H3G6 fully human TIM-3 antibody (human IgG4, kappa) (antibody, V domains shown) VH: EVQLVESGGGLVQPGGSLRLSCAASGFTFSNSWMTWVRQAPGKGLEWVANIKQAGTEKYYVDSVKGRFTISRDNAKNSLYLQMNSLRAEDTAVYYCNSGSNYFDYWGQGTLVTVSS VL: EIVMTQSPATLSVSPGERATLSCRARQNFYSNLAWYQQKPGQAPRLLIYGASTRATGIPARFSGSGSGTEFTLTISSLQSEDFAVYYCQQYNNWPLTFGGGTKVEIK |
|  |  |  |  |  | 0.64 | no binding (tested: 66.667 nM) | 0.64 | 0.64 | 134H3G6 (TIM-3 antibody purified from hybridoma, chimeric antibody of Example 2) (antibody, V domains shown, From hybridoma of Harbour H2L2 transgenic mice: human variable regions, rat constant regions) VH: EVQLVESGGGLVQPGGSLRLSCAASGFTFSNSWMTWVRQAPGKGLEWVANIKQAGTEKYYVDSVKGRFTISRDNAKNSLYLQMNSLRAEDTAVYYCNSGSNYFDYWGQGTLVTVSS VL: EIVMTQSPATLSVSPGERATLSCRARQNFYSNLAWYQQKPGQAPRLLIYGASTRATGIPARFSGSGSGTEFTLTISSLQSEDFAVYYCQQYNNWPLTFGGGTKVEIK |
| 235 | 8.2 | 3.05 | 0.1 | 92.5 |  |  |  |  | 215A8F2 fully human TIM-3 antibody (human IgG4, kappa) (antibody, V domains shown) VH: QVQLQQWGAGLLKPSETLSLTCTVYGGSFSGYYWNWIRQPPGKGLEWLGEINHSGSTNYNPSLKRRVTISVDTSKNQFSLKLSSVTAADTAVYYCARVYYYGPFDFWGQGTLVTVSS VL: not shown |
|  |  |  |  |  | 1.5 | no binding (tested: 66.667 nM) | 0.63 | 0.63 | 215A8F2 (TIM-3 antibody purified from hybridoma, chimeric antibody of Example 2) (antibody, V domains shown, From hybridoma of Harbour H2L2 transgenic mice: human variable regions, rat constant regions) VH: QVQLQQWGAGLLKPSETLSLTCTVYGGSFSGYYWNWIRQPPGKGLEWLGEINHSGSTNYNPSLKRRVTISVDTSKNQFSLKLSSVTAADTAVYYCARVYYYGPFDFWGQGTLVTVSS VL: not shown |
